In paper PMC4834642, “Orthogonal ring-closing alkyne and olefin metathesis for the synthesis of small GTPase-targeting bicyclic peptides” (Nature Communications, 2016):
Each block holds one molecule with its values, some of them ahead of it. Bridge positions count the residues as written; N and C are the ends. Square brackets hold non-standard residues; d marks the D form. Peptide text beside a SMILES is read from it. S5 = C=CCCC[C@](C)(N)C(=O)O

Key:
Rab8a6-176(GppNHp) = target: T1, Rab8a6-176(GppNHp) (Homo sapiens, UniProt P61006); test: Competition fluorescence polarization assay (displacement of labelled peptide 25); type: binding; details: for Competition with labelled peptide 25 (in words): excess of acetylated peptide added to complex of labelled peptide 25 and Rab8a6-176(GppNHp)
T1 construct: Expression and purification of Rab8a6-176 was performed analog to full-length Rab8a; made in house
T1 sequence (P61006 6-176): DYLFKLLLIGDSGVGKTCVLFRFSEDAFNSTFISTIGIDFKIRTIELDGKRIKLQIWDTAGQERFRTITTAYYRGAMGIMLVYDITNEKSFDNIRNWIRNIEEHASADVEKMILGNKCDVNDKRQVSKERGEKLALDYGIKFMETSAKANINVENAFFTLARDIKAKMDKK
Method: Acetylated peptides were serially diluted and incubated with a mixture of the fluorescein-labelled peptide and Rab8a6–176 (GppNHp) at room temperature for 1 h. Fluorescence polarization was determined and IC50 values were calculated by nonlinear regression analysis using Prism 5.0 software (GraphPad)[64].
Rab8a6-176 (GppNHp) was serially diluted in assay buffer and treated with 133 nM fluorescein-labeled peptide. After incubation for 4 h at room temperature the mixture was soaked into capillaries for microscale thermophoresis (MST) measurements. Kd values were calculated after initial fluorescene analysis of the obtained MST curves using the software Monolith Affinity Analysis (NanoTemper Technologies).
Competition fluorescence polarization assay
Acetylated peptides were serially diluted in assay buffer (1:1) and were incubated with a mixture of […] fluorescein-labeled peptide and Rab8a6-176 (GppNHp) (15 µM or 100 µM depending on Kd of the labeled peptide) for 1 h at room temperature.
Fluorescence polarization was dertermined and half maximal inhibitory concentrations (IC50) were calculated by nonlinear regression analysis of dose-response curves using Prism 5.0 software (GraphPad).5

peptide 28 = target: T2, peptide 28 (Homo sapiens, UniProt Q6IQ26); test: fluorescence polarization
T2 chain: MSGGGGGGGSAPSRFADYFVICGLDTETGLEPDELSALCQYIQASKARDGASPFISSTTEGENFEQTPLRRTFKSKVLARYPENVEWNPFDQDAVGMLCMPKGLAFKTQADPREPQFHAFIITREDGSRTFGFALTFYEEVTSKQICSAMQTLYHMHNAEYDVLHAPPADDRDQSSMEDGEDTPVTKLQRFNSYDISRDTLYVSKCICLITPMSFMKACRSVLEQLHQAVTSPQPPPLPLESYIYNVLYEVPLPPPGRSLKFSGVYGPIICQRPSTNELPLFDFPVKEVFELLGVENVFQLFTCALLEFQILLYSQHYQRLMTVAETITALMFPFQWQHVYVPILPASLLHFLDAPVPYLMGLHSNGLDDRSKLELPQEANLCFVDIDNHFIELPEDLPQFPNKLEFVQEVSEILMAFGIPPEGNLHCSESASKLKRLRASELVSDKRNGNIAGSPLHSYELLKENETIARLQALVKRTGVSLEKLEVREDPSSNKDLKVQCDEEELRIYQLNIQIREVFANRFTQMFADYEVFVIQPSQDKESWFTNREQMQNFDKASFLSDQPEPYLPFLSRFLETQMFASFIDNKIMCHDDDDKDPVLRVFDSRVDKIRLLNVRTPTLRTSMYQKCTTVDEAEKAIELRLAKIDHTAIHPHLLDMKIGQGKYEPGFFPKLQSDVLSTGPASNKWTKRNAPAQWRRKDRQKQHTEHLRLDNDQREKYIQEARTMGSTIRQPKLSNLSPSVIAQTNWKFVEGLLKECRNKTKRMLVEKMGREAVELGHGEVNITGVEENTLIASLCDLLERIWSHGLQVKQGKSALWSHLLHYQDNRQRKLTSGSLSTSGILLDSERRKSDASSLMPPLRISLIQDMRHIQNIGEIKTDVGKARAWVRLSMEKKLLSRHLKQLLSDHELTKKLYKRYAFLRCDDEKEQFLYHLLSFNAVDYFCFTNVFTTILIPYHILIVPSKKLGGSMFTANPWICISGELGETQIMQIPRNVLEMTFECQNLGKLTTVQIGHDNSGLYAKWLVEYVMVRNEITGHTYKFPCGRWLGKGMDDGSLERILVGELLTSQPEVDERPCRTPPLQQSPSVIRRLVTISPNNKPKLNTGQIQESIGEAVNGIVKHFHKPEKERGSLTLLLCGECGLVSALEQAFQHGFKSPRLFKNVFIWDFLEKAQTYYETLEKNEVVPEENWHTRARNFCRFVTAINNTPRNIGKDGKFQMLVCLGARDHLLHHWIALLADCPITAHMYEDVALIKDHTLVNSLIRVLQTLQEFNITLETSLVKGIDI

peptide 25 [1] = target: T3, peptide 25 (Homo sapiens, UniProt Q6IQ26); test: fluorescence polarization
T3 chain: T2 chain

peptide 25 [2] = target: T3, peptide 25; test: microscale thermophoresis (fluorescence intensity)
peptide 21 = target: T4, peptide 21 (Homo sapiens, UniProt Q6IQ26); test: fluorescence polarization
T4 chain: T2 chain

StRIP3 [3] = target: T5, StRIP3 (Homo sapiens, UniProt Q6IQ26); test: fluorescence polarization
T5 chain: T2 chain

StRIP3 [4] = target: T5, StRIP3; test: competition fluorescence polarization

B1: Rab8a 6-176 (protein)
chain: T1 sequence (P61006 6-176)
modifications: GppNHp-bound Rab8a; bicyclic alkyne/olefin crosslinked StRIP3 derivative, fluorescein-PEG label
Kd (peptide 28): 9.6 µM

B2: Rab8a 6-176 (protein)
chain: T1 sequence (P61006 6-176)
modifications: GppNHp-bound Rab8a; bicyclic olefin/alkyne crosslinked StRIP3 derivative, fluorescein-PEG label
Kd (peptide 25 [1]): 6.6 µM
Kd (peptide 25 [2]): 11 µM

B3: Rab8a 6-176 (protein)
chain: T1 sequence (P61006 6-176)
modifications: GppNHp-bound Rab8a; dibrominated olefin macrocyclic StRIP3 derivative, fluorescein-PEG label
Kd (peptide 21): 10.7 µM

B4: Rab8a 6-176 (protein)
chain: T1 sequence (P61006 6-176)
modifications: GppNHp-bound Rab8a; i,i+4 olefin hydrocarbon-stapled peptide, fluorescein-PEG label
Kd (StRIP3 [3]): 20.7 µM

B5: Rab8a 6-176 (protein)
chain: T1 sequence (P61006 6-176)
modifications: GppNHp-bound Rab8a; acetylated i,i+4 olefin hydrocarbon-stapled peptide
IC50 (StRIP3 [4]): 33 µM

Next, values leading:

IC50 (Rab8a6-176(GppNHp); acetylated peptide as competitor, fluorescein-labelled peptide 25 (60 nM) bound to Rab8a(GppNHp) 15 μM, 1 h room temperature, triplicates, errors 1σ): 33 µM
Competition with labelled peptide 25 (in words) (Rab8a6-176(GppNHp)): full displacement of peptide 25
Molecule: CC(=O)N[C@@H](CC(=O)O)C(=O)N[C@@H](CC(=O)O)C(=O)N[C@@H](CCC(=O)O)C(=O)N[C@@]1(C)CCC/C=C\CCC[C@@](C)(C(=O)N[C@@H](Cc2ccc(O)cc2)C(=O)N[C@@H](Cc2c[nH]cn2)C(=O)N[C@@H](CC(C)C)C(=O)N[C@@H](CC(C)C)C(=O)N[C@@H](CO)C(=O)N[C@@H](Cc2ccccc2)C(=O)N[C@@H](CC(N)=O)C(=O)N[C@@H](C)C(=O)N[C@H](C(N)=O)C(C)C)NC(=O)[C@H](Cc2ccccc2)NC(=O)[C@H](CCC(N)=O)NC(=O)[C@H](CCC(=O)O)NC1=O [acetylated StRIP3] (Ac-DDE[S5]EQF[S5]YHLLSFNAV-NH2; staple (Z) 4-8; C-terminus assumed)

Competition with labelled peptide 25 (in words) (Rab8a6-176(GppNHp)): does not compete with peptide 25
Molecule: CC(=O)N[C@@H](CC(=O)O)C(=O)N[C@@H](CC(=O)O)C(=O)N[C@@H](CCC(=O)O)C(=O)N[C@@H](CCCCN)C(=O)N[C@@H](CCC(=O)O)C(=O)N[C@@H](CCC(N)=O)C(=O)N[C@@H](Cc1ccccc1)C(=O)N[C@@H](CC(C)C)C(=O)N[C@@H](Cc1ccc(O)cc1)C(=O)N[C@@H](Cc1c[nH]cn1)C(=O)N[C@@H](CC(C)C)C(=O)N[C@@H](CC(C)C)C(=O)N[C@@H](CO)C(=O)N[C@@H](Cc1ccccc1)C(=O)N[C@@H](CC(N)=O)C(=O)N[C@@H](C)C(=O)N[C@H](C(N)=O)C(C)C [wt-R6IP] (Ac-DDEKEQFLYHLLSFNAV-NH2; N-terminus and C-terminus assumed)
